Test results published in article PMC4831024 (Nature Communications, 2016).

Target: T1, Ku heterodimer (Ku70/Ku80), full length, recombinant human (human, UniProt P12956 1-609; P13010 1-732)
T1 construct: Ku70, human; Ku80, human; also called recombinant Ku; full-length Ku heterodimer; source: insect cells, baculovirus expression system, purified (immobilized metal-chelate chromatography, gel filtration)
Experiment: pull-down; 50 nM Strep-tagged WRN protein immobilised on Streptavidin Mag Sepharose beads, 50 nM recombinant untagged Ku, 1 h at 4 °C; 20 mM Hepes pH 7.5, 150 mM NaCl, 5% glycerol, 0.5 mM TCEP, 0.05% IGEPAL-CA640; SDS–PAGE, Coomassie/Instant Blue
Settings: both partners purified

T1 sequence (P12956 whole entry, chain 1 of 2): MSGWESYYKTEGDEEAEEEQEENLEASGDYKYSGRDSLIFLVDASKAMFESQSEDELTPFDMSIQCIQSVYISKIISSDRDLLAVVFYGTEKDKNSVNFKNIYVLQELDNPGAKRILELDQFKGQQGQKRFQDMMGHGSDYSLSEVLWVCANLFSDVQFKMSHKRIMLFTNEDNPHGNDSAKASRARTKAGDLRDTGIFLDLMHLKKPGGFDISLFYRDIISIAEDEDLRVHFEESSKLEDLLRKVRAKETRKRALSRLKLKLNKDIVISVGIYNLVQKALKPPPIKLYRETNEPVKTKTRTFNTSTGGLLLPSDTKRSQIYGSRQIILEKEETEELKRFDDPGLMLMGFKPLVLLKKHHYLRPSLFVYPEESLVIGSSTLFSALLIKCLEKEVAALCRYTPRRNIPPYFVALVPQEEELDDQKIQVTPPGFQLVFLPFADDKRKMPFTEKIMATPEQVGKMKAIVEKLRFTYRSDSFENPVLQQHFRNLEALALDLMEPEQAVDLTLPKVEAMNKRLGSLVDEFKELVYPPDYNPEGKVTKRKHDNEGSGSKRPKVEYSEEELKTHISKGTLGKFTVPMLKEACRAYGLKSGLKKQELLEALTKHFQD
T1 sequence (P13010 whole entry, chain 2 of 2): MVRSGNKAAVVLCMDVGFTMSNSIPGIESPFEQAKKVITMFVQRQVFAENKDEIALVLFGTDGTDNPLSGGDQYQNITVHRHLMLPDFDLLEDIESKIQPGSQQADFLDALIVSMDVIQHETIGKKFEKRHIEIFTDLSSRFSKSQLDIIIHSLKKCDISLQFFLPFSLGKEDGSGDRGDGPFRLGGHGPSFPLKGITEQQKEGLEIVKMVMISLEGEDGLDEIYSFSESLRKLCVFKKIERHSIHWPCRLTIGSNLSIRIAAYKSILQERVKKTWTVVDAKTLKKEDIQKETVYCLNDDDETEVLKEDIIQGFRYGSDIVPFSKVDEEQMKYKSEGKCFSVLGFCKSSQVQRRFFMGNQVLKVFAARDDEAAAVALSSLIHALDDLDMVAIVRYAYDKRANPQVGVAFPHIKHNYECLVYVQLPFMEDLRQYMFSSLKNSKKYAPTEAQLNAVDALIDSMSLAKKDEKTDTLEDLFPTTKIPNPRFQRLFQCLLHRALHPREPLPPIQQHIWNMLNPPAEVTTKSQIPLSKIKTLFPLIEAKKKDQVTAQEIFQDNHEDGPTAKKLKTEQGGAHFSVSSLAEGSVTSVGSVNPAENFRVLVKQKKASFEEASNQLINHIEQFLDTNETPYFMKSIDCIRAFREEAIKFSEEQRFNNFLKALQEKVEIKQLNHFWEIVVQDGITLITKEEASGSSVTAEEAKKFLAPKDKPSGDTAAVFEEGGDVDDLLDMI

B1: Strep-tagged WRN^W18G (natural protein)
chain: not shown
notes: Werner syndrome protein (WRN), human, full length, W18G; source: insect cells, baculovirus expression system, purified (Strep-Tactin Superflow Plus cartridge, Superose 6 gel filtration)
- binding result: binds
